What was measured:
[1] = target: Myc-GST融合蛋白 (Myc标签与谷胱甘肽融合的蛋白); assay: indirect ELISA, Myc-GST coated at 5 μg/mL, HRP anti-His secondary; heat test at 90℃
[2] = target: Myc-GST融合蛋白 (Myc标签与谷胱甘肽融合的蛋白); assay: indirect ELISA, Myc-GST coated at 5 μg/mL, HRP anti-His secondary; heat test at 70℃
[3] = target: Myc-GST融合蛋白 (Myc标签与谷胱甘肽融合的蛋白); assay: indirect ELISA, Myc-GST coated at 5 μg/mL, HRP anti-His secondary; heat test at 80℃

B1: 抗c-Myc标签单域重链抗体 (anti-c-Myc tag single-domain heavy-chain antibody, SEQ ID NO.:1) (VHH, not shown: small tags and cut ends)
VHH: QLQLVESGGGLVQAGGSLRLSCAVSGFTFSANAMSWVRQAPGKGPEWVSSINRGGASAEYADSVKGRFTISRDDAKNTLYLQMNSLKPEDTALYYCARGNYRGSYFNGPRTYWGRGTQVTVSP
An OD450 [1] of 1.1 OD450, an OD450 [2] of 1.4 OD450 and an OD450 [3] of 1.2 OD450 were found for B1 in this work.

— CN107042098A
